Results reported in patent US20110124571A1 (INSTITUT PASTEUR, published 2011).

Target: Recombinant human NEP (neutral endopeptidase, EC 3.4.24.11), devoid of its N-terminal cytosol and … (human, UniProt P08473 52-750)
Experiment: cell-based or functional assay

Sequence of Recombinant human NEP (neutral endopeptidase, EC 3.4.24.11), devoid of its N-terminal cytosol and … (P08473 52-750): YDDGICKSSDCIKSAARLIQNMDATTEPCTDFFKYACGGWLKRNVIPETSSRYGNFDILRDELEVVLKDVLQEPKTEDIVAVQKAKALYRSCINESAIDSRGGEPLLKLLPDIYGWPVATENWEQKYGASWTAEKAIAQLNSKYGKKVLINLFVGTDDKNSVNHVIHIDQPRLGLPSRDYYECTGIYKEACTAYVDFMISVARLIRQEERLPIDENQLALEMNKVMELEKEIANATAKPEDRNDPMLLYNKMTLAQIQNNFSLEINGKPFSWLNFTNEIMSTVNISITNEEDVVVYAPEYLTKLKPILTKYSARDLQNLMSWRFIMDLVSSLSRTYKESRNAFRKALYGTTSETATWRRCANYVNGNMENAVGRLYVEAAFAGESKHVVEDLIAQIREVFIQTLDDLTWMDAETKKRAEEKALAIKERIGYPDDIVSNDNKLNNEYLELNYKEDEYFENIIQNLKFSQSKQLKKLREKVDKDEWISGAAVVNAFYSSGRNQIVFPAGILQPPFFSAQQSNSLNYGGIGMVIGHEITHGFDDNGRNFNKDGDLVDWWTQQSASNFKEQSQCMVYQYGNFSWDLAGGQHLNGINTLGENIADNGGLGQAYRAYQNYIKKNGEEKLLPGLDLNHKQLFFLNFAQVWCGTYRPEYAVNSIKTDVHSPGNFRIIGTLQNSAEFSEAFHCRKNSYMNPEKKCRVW

Binder: CQRFSR (spacer -HN-(CH2)6-CO- (amino-hexanoic-acid) between Cys and Gln) [NH2-C-(C6-polyethylene)QRFSR-COOH]
- IC50, inhibition of Abz-dR-G-L-EDDnp cleavage by rhNEP (endopeptidase activity): 40 µM
